B2: POLE2 (natural protein, human)
chain: MAPERLRSRALSAFKLRGLLLRGEAIKYLTEALQSISELELEDKLEKIINAVEKQPLSSNMIERSVVEAAVQECSQSVDETIEHVFNIIGAFDIPRFVYNSERKKFLPLLMTNHPAPNLFGTPRDKAEMFRERYTILHQRTHRHELFTPPVIGSHPDESGSKFQLKTIETLLGSTTKIGDAIVLGMITQLKEGKFFLEDPTGTVQLDLSKAQFHSGLYTEACFVLAEGWFEDQVFHVNAFGFPPTEPSSTTRAYYGNINFFGGPSNTSVKTSAKLKQLEEENKDAMFVFLSDVWLDQVEVLEKLRIMFAGYSPAPPTCFILCGNFSSAPYGKNQVQALKDSLKTLADIICEYPDIHQSSRFVFVPGPEDPGFGSILPRPPLAESITNEFRQRVPFSVFTTNPCRIQYCTQEITVFREDLVNKMCRNCVRFPSSNLAIPNHFVKTILSQGHLTPLPLYVCPVYWAYDYALRVYPVPDLLVIADKYDPFTTTNTECLCINPGSFPRSGFSFKVFYPSNKTVEDSKLQGF
notes: POLE2, human; Stood in the structure as a subunit of m2; residues 1-527 modelled; source: Hi5 insect cells, purified as a subunit of Pol ε

For the test “POLE2”, the target named is B2. In words: cryo-EM structure; replisome reconstituted on fork DNA with AMP-PNP, isolated on a glycerol gradient with glutaraldehyde and BS3; 3.2 Å overall; a sample without CLASPIN solved at 3.4 Å. The conditions noted are these: both partners purified.
In the next test the target is T1, MCM5 (human, UniProt P33992 1-734).
T1 construct: MCM5, human; Stood in the structure as a subunit of m1; source: Hi5 insect cells, purified as a subunit of hsCMG
T1 sequence: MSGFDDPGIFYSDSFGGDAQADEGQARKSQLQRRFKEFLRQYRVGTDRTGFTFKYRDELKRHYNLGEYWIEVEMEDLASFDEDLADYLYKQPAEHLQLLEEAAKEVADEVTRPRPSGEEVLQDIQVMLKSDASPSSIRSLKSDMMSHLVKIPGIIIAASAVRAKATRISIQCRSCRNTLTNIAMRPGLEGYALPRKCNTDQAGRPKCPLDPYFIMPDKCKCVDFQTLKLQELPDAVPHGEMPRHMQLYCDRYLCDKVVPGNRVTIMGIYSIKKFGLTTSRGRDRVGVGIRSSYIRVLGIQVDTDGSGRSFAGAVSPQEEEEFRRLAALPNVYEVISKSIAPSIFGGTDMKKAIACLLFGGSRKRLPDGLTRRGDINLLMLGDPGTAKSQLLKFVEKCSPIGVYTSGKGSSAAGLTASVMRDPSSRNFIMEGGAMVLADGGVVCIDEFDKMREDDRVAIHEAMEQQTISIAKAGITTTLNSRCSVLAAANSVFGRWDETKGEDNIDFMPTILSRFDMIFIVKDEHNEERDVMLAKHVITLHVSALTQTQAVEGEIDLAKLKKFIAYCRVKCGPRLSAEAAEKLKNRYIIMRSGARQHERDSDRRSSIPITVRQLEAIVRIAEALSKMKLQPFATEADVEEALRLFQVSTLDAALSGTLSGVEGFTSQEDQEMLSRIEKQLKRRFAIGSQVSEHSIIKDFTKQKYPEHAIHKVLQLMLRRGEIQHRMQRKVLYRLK
The description is as above. The conditions noted are these: both partners purified.

B1: PSF1 (natural protein, human)
chain: MFCEKAMELIRELHRAPEGQLPAFNEDGLRQVLEEMKALYEQNQSDVNEAKSGGRSDLIPTIKFRHCSLLRNRRCTVAYLYDRLLRIRALRWEYGSVLPNALRFHMAAEEMEWFNNYKRSLATYMRSLGGDEGLDITQDMKPPKSLYIEVRCLKDYGEFEVDDGTSVLLKKNSQHFLPRWKCEQLIRQGVLEHILS
notes: PSF1 (GINS subunit), human; Stood in the structure as a subunit of m1; also called GINS subunit PSF1; source: Hi5 insect cells, purified as a subunit of hsCMG
B1: the binding result with POLE2 is listed as “binds”. For the molecule B2, the binding result with MCM5 is “binds”.
